Data published in publication PMC9490041 (2022).
Where two headings read alike, the source gives them in different places. Ends that are not written are not given here. * marks the point of attachment. FITC = O=C1OC2(c3ccc(O)cc3Oc3cc(O)ccc32)c2ccc(NC(=S)*)cc21; Dansyl = CN(C)c1cccc2c(S(=O)(=O)*)cccc12

How the values were obtained:
[1] = biological target: PSG (PSD-95), PDZ3-SH3-GK supramodule, wild type; experiment: FP
[2] = biological target: PSG (PSD-95), PDZ3-SH3-GK supramodule, wild type

Binder	Kd [1]	Kd [2]
{FITC}-PLVGQDIIDLQTEV [FITC-14 AA ADGRB1]	60 µM	–
Dansyl-GKKVLDTKNYKQTSV [15 AA CRIPT, dansylated (DNS-GKKVLDTKNYKQTSV)]	–	490 nM
Dansyl-RDGCHRLPKIKETTV [15 AA FRPD4, dansylated (DNS-RDGCHRLPKIKETTV)]	–	760 nM
Dansyl-KTESKKHGRWKLWFL [15 AA INSY2, dansylated (DNS-KTESKKHGRWKLWFL)]	–	161000 nM
Dansyl-AQRGSFPPWVQQTRV [15 AA SynGap (DNS-AQRGSFPPWVQQTRV)]	–	550 nM
